The data set in a line: soluble on expression in E. coli; label from the status in PepcDB or PDB records.
For the sequence “MGSDKIHHHHHHMSMVEEKFKKLGVENAPGQELLQKGVKLDLKGEKILGEKIDFSHGDVDAHKPLPNSLELFIEGFNKGGIQAYTEYKGNKEIREYIAGKLSEYIKMNIPADNLIITPGTQGALFLATGSLITRGTKVSIVEPDYFANRKLVEFFEGEIVPIELDYFNVNEKKAGLNLKQLEEAFKSGVELFLFSNPNNPTGVIYSDEEITEIARLVNKYNVTVIADELYSRQIFDNREFYHLITKNINQDKLITIIGPSKTESLSGFRLGIAYGSPTIIKRMEKLQAITTLRTAGYNQAVLKSWFSEPDGFMKDRIEKHQAIRDNLIEKFKTIDGIKIRKTEAGSYIFPTLPELEVNLGDFVKILRIYANVIVTPGTEFGKSFINSIRLNFSQDEKKAAEGVDRILEMIRRYKK”, the “soluble on expression in E. coli” value is recorded as “not soluble”.

As to “MSTEKLEASEEPQAPLANTSETNSIKGDTENIVTVFDLANEIEKSLKDVQRQMKENDDEFSRSIQAIEDKLNKMSR”, the “soluble on expression in E. coli” value is “not soluble”.

Regarding “MSLRNKLLTIFDSVDESARIKDAFITQLESSITDAGVLALKLELLDFLTSNLSNYSRTMTISHLLLGFQVSNVISLGPNLATFISSGTSLLDSLISVLEASLNSITKDNIDYAPMRLATAALEIILKLCRNPLTSGLLYSYLIKENFFERIMILDPQVTRFTTWNGSPFDNSTEEKCKNFIESESVGAFLSFLAYRNYWTQYLGLFIHKISFSGTKSEVLTYVNYLISNTMYSVRLFSFLDPLNYGNICEPKETLSIFTNVPLNLEQVTLNKYCSGNIYDFHKMENLMRLIKRVRAESLHSNEGHHHHHH”, the “soluble on expression in E. coli” value is reported as “soluble”.

Regarding “MAAEDELQLPRLPELFETGRQLLDEVEVATEPAGSRIVQEKVFKGLDLLEKAAEMLSQLDLFSRNEDLEEIASTDLKYLLVPAFQGALTMKQVNPSKRLDHLQRAREHFINYLTQCHCYHVAEFELPKTMNNSAENHTANSSMAYPSLVAMASQRQAKIQRYKQKKELEHRLSAMKSAVESGQADDERVREYYLLHLQRWIDISLEEIESIDQEIKILRERDSSREASTSNSSRQERPPVKPFILTRNMAQAKVFGAGYPSLPTMTVSDWYEQHRKYGALPDQGIAKAAPEEFRKAAQQQEEQEEKEEEDDEQTLHRAREWDDWKDTHPRGYGNRQNMGAAAAAALEHHHHHH”, the “soluble on expression in E. coli” value is “not soluble”.

“MSLVSSTLKSVSRCRHFRIDGFWLQTVMSDIFSHTALSNLAEFSVSELSGSIKRTVETAFEQVRVRGEISGYRGPHSSGHAYFSLKDDRARIDAVIWKGTFSRLKFRPEEGMEVIATGKITTFPGSSKYQIVIESLEPAGAGALMALLEDRRRRLAAEGLFDSARKRPLPFMPRVIGVVTSPTGAVIRDILHRISDRFPVHVVVWPVKVQGEGSGEEVANAIRGFNALKPGGDIARPDVLIVARGGGSLEDLWSFNDEIVVRAAAESEIPLISAVGHETDTTLIDYAADVRAPTPTGAAEMAVPVRAELEAQLSGLAARLSGSVSRQMDNRRQGVRALVRALPSLDQLLALPRRRFDEAASGLGRGLELTTLNKRRAFERSASGLRPETLLNGLKHHRQRITERMHRAETLVERRLLQGKGRVDSFDSALRSLPARLLGQLERQKERVVTAARRADTAVLHRMAQNRSGLAAHDRILQSLSYKNVLNRGYAVIRDEENRPLTRAAAIASGAAVSMEFADGRVSAITTGEGTPAPETAAAPKKKPAKPASSDPGNQGNLFEGHHHHHH”: the “soluble on expression in E. coli” value is recorded as “not soluble”.

As for “MSELRILRAVDYPRMPWKNGAGSTEEIARDGGDGLDGFGWRLSIADVGESGGFSGFAGYQRIISVLEGGGMRLRVDGAESAPLRARQAFAFSGDSEVHCTLLDGAIRDFNLIYAPRRHRARLQWLRVEGELDWHGTASTLLLFAQQDGVAISLQGQPRGQLAAHDCLCAEGLQGLQHWRLTAHEPAWVCAVELDSL”, the “soluble on expression in E. coli” value is “soluble”.

On to “MGDNQVTGGDIHKLWMTAHMDISAVEDAYIKLTEQLDGDVAEGDEGKYGKAFDSWNIYREIVQLALFRTAVSARATRLALDLAVSEFTFVDGDAANGITDAGKEFLEAVGDENQTPPEYVVEPEGDPVAPLGNDE”, for which the “soluble on expression in E. coli” value was “not soluble”.

Take “MAKVSVVMPVYNSEKYLKESIESILNQSYSDLEFIIINDGSTDNSFKIIKEYAKLDKRINVISRENKGIVYSLNEAIRLAKGEYIARMDADDISAPKRIEKQISFLKSHRDIDILGTQVKVVGNISNDIKEKNENKLNIEFDIYDDNREKILNYWYCLAHPSVMFRKDILRELKGYNDFKSEDLDLWLRAIESGFKIYKLKEELIYFRMHEESKTRVDNQNYEGLKDGIKIKLIDVFKREFKKDFKYIVWGASNGGKITKEVLDEFFEKSQCIAFVDKFKTGEFEKIRILHPKDINHIKFDYVFIATEPGKEEAMSSLKSMGLKCIKDFLSTVLEHHHHHH”: the “soluble on expression in E. coli” value is on record as “not soluble”.

For “MKKLVHLSDFHYDGLRLSEEMLAEAIAVSNQVQPDLVLLTGDYVTTTPQPIHQLAKRLQKLQSHAGIYAILGNHDLYQKNSKTEITQALTKAGIQVLWNEIAYPLGEELPIVGIVDYYYREFNPQLLFNQLEPTTPRIVLCHNPDTAAMLQGWRVDLQLSGHTHGGLEHHHHHH”, the “soluble on expression in E. coli” value was “not soluble”.

As to “MGSDKIHHHHHHMSSLQILQGTFRLSDTKTLQLPQLTLNAGDSWAFVGSNGSGKSALARALAGELPLLKGERQSQFSHITRLSFEQLQKLVSDEWQRNNTDMLGPGEDDTGRTTAEIIQDEVKDAPRCMQLAQQFGITALLDRRFKYLSTGETRKTLLCQALMSEPDLLILDEPFDGLDVASRQQLAERLASLHQSGITLVLVLNRFDEIPEFVQFAGVLADCTLAETGAKEELLQQALVAQLAHSEQLEGVQLPEPDEPSARHALPANEPRIVLNNGVVSYNDRPILNNLSWQVNPGEHWQIVGPNGAGKSTLLSLVTGDHPQGYSNDLTLFGRRRGSGETIWDIKKHIGYVSSSLHLDYRVSTTVRNVILSGYFDSIGIYQAVSDRQQKLVQQWLDILGIDKRTADAPFHSLSWGQQRLALIVRALVKHPTLLILDEPLQGLDPLNRQLIRRFVDVLISEGETQLLFVSHHAEDAPACITHRLEFVPDGGLYRYVLTKIY”, the “soluble on expression in E. coli” value was “not soluble”.

Regarding “MTHSKDKKSHAFKGIGEKLNPTIYQVRFMKLDEPIRFESFPELKELGDWLSTSTHMWSCHSTMYKYNREEFEKKFLEITKLTADHVLISTGGVGFNFMSPGWRNSL”, the “soluble on expression in E. coli” value is “not soluble”.

“MGSDKIHHHHHHMTITTQSLPVVRRHTIHFLEKAKNSQAVYLSTDIDASRIQEVKRRYEQASIKISYISFLLFAISRAIEVFPEVNSSVQGRWHLKRWQFSTIDAKVTLDKLAGQERMVVSSVIPETNKKSLLAIQDEINELKIASFETSDRFQSIRKLQRLPLWIGRIIYRKILQNPITWQQTQGSFTITSLGHVPIQSFFPITTNTVCFGVGSIRECAVVREGQVVVRPMLPLSMTFDHRAIDGALASEFLYRIKQNVEEWEVEAWEDDQKNQAMM”: the “soluble on expression in E. coli” value is recorded as “not soluble”.

Take “MVQREKARDNFEGGCLAELIGSPRDWKCFLAVPDPLLGVQHWLHLWRPQTKDGNSLHRHGDQAWGKHRRQNSLKSPALSGHSIDYHFYPRLRCGMLIGPDKQAVASGLEVLVTSSTKILGQLFPDAAHFLEEASEFKAE”: the “soluble on expression in E. coli” value is on record as “soluble”.

“MKVYVGNLGTGAGKGELERAFSYYGPLRTVWIARNPPGFAFVEFEDPRDAEDAVRGLDGKVICGSRVRVELSTGMPRRSRFDRPPARRKLLEVLFNGPLEH”: the “soluble on expression in E. coli” value is given as “soluble”.

On to “KDWTQYVNPLMGSQSTFELSTGNTYPAIARPWGMNFWTPQTGKMGDGWQYTYTANKIRGFKQTHQPSPWINDYGQFSIMPIVGQPVFDEEKRASWFAHKGEVATPYYYKVYLAEHDIVTEMTPTERAVLFRFTFPENDHSYVVVDAFDKGSYIKIIPEENKIIGYTTRNSGGVPENFKNYFIIEFDKPFTYKATVENGNLQENVAEQTTDHAGAIIGFKTRKGEQVNARIASSFISFEQAAANMNELGKDNIEQLAQKGKDAWNQVLGKIEVEGGNLDQYRTFYSCLYRSLLFPRKFYELDANGQPIHYSPYNGQVLPGYMFTDTGFWDTFRCLFPLLNLMYPSVNKEMQEGLINTYLESGFFPEWASPGHRGCMVGNNSASILVDAYMKGVKVDDIKTLYEGLIHGTENVHPEVSSTGRLGYEYYNKLGYVPYDVKINENAARTLEYAYDDWCIYRLAKELKRPKKEISLFAKRAMNYKNLFDKESKLMRGRNEDGTFQSPFSPLKWGDAFTEGNSWHYTWSVFHDPQGLIDLMGGKEMFVTMMDSVFAVPPIFDDSYYGQVIHEIREMTVMNMGNYAHGNQPIQHMIYLYDYAGQPWKAQYWLRQVMDRMYTPGPDGYCGDEDNGQTSAWYVFSALGFYPVCPGTDEYVMGTPLFKKATLHFENGNSLVIDAPNNSTENFYIDSMSFNGADHTKNYLRHEDLFKGGTIKVDMSNRPNLNRGTKEEDMPYSFSKELEHHHHHH”, for which the “soluble on expression in E. coli” value is listed as “soluble”.

In the case of “MTLSFTARWRDELPATYTALLPTPLKNARLIWYNDELAQQLAIPASLFDATNGAGVWGGETLLPGMSPVAQVYSGHQFGVWAGQLGDGRGILLGEQLLADGSTLDWHLKGAGLTPYSRMGDGRAVLRSTIRESLASEAMHYLGIPTTRALSIVTSDTPVQRETQETGAMLMRLAQSHMRFGHFEHFYYRREPEKVQQLADFAIRHYWPQWQDVAEKYALWFEEVAARTGRLIAEWQTVGFAHGVMNTDNMSILGLTIDYGPFGFLDDYDPGFIGNHSDHQGRYRFDNQPSVALWNLQRLAQTLTPFIEIDALNRALDRYQDALLTHYGQRMRQKLGFFTEQKDDNVLLNELFSLMAREGSDYTRTFRMLSHTEQQSASSPLRDTFIDRAAFDAWFDRYRARLRTEAVDDALRQQQMQRVNPAIVLRNWLAQRAIDAAEQGDMAELHRLHEVLRQPFTDRDDDYASRPPEWGKRLEVSCSSMAGDPLEHHHHHH”, the “soluble on expression in E. coli” value was “not soluble”.

On to “MSLRVAVGMSGGVDSSVTALLLKEQGHDVIRVTLRFHTVEACEVNETHNVCCSPKDVQDASRVAKRLGIPHLVFSWEEIFKSKVIDYFVEEYKRGRTPNPCALCNREVKTGFFARYLKQVADIDKLATGHYAKIEEDKKYGLVIKRPKDRKRDQTYFLSLVRREDLELLTFPLGAYTKEEVREIAKRYGLEVAQKRDSQEVCFLMGKSPGEYLEGILGKQRGLIKHVSGKVLGEHEGVYRYTIGQRRGLGISYGKPVYVIDIDAKTNTLIVGEEEYLYNDKLLVKEINFHVPLEKWENVSAQIRYRHKPVPVERIEKTEEGFLVKFKEDVRGITPGQVVAFYDGDVLLGGGIIEESVKEGHHHHHH”, for which the “soluble on expression in E. coli” value is listed as “soluble”.

Consider “MEKHPGKLFYRLSRLAPGDALPLKRGPKAKVYANPLETQALPPFRQDGGPPLFRAMAHLRPLLPEVGASLTLKDLSQVLYPLAEREGRRGFPSAGEAYPLEAYLVVRRVEGVFPGVYHYFPREHQLFQIASKVEEAAWAEALMGVALDRAAVLLVLTLLPERSEALFGLRGYRYALLEAGYAAGLVLLAAVGQGLAAYPAETFHDEGVARLLGLPEGEYPGVVVVLGR”, for which the “soluble on expression in E. coli” value is recorded as “soluble”.

(Values after the DeepSol protein solubility set.)
